Measurements from the supplement of paper PMC10567573.

B1: PKD2L1 (parent)
chain: TLARCAKDILGFAVMFFIVFFAYA

Variants of: B1
Experiment: protein stability index of a GFP-peptide fusion (GPS, HEK-293T) (PSI 1-6); higher = more stable
Settings: c terminus: a fixed tail appended
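Also: lentivirally expressed fusions sorted by FACS into six bins by GFP to DsRed ratio, PSI derived from sequencing read proportions per bin multiplied by bin number.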

With TLARCAKDINGFAVMFFIVFFAYA [L10N] as the variant, how does the protein stability index read?
Its protein stability index is 1.82.

Which protein stability index does the source give for TLARCAKDIHGFAVMFFIVFFAYA [L10H] here?
Its protein stability index is 1.83.

Which protein stability index does the source give for TLARCAKDIGGFAVMFFIVFFAYA [L10G] here?
The protein stability index was 2.03.

With TLARCAKDICGFAVMFFIVFFAYA [L10C] as the variant, how does the protein stability index read?
Its protein stability index is 2.79.

Which protein stability index does the source give for TLARCAKDIIGFAVMFFIVFFAYA [L10I] here?
Its protein stability index is 2.42.

For TLARCAKDIRGFAVMFFIVFFAYA [L10R], which protein stability index is on record?
The protein stability index was 2.54.

With TLARCAKDITGFAVMFFIVFFAYA [L10T] as the variant, how does the protein stability index read?
Its protein stability index is 3.28.

For TLARCAKDILGFAVFFFIVFFAYA [M15F], which protein stability index is on record?
Its protein stability index is 2.54.

With TLARCAKDILGFAVLFFIVFFAYA [M15L] as the variant, how does the protein stability index read?
The protein stability index was 1.25.

Which protein stability index does the source give for TLARCAKDILGFAVNFFIVFFAYA [M15N] here?
Its protein stability index is 1.32.

For TLARCAKDILGFAVHFFIVFFAYA [M15H], which protein stability index is on record?
The protein stability index was 2.17.

Which protein stability index does the source give for TLARCAKDILGFAVEFFIVFFAYA [M15E] here?
Its protein stability index is 2.61.

Which protein stability index does the source give for TLARCAKDILGFAVAFFIVFFAYA [M15A] here?
Its protein stability index is 2.27.

With TLARCAKDILGFAVVFFIVFFAYA [M15V] as the variant, how does the protein stability index read?
Its protein stability index is 1.88.

For TLARCAKDILGFAVPFFIVFFAYA [M15P], which protein stability index is on record?
Its protein stability index is 2.62.

Which protein stability index does the source give for TLARCAKDILGFAVWFFIVFFAYA [M15W] here?
The protein stability index was 2.5.

For TLARCAKDILGFAVSFFIVFFAYA [M15S], which protein stability index is on record?
The protein stability index was 1.33.

Which protein stability index does the source give for TLARCAKDILGFAVCFFIVFFAYA [M15C] here?
Its protein stability index is 2.86.

Which protein stability index does the source give for TLARCAKDILGFAVQFFIVFFAYA [M15Q] here?
Its protein stability index is 3.41.

For TLARCAKDILGFAVDFFIVFFAYA [M15D], which protein stability index is on record?
The protein stability index was 2.89.

For TLARCAKDILGFAVKFFIVFFAYA [M15K], which protein stability index is on record?
The protein stability index was 2.58.

With TLARCAKDILGFAVGFFIVFFAYA [M15G] as the variant, how does the protein stability index read?
Its protein stability index is 2.48.

Which protein stability index does the source give for TLARCAKDILGFAVIFFIVFFAYA [M15I] here?
The protein stability index was 3.37.

Which protein stability index does the source give for TLARCAKDILGFAVYFFIVFFAYA [M15Y] here?
Its protein stability index is 1.72.

For TLARCAKDILGFAVRFFIVFFAYA [M15R], which protein stability index is on record?
The protein stability index was 3.16.

For TLARCAKDILGFFVMFFIVFFAYA [A13F], which protein stability index is on record?
Its protein stability index is 2.92.

For TLARCAKDILGFKVMFFIVFFAYA [A13K], which protein stability index is on record?
Its protein stability index is 3.14.

With TLARCAKDILGFPVMFFIVFFAYA [A13P] as the variant, how does the protein stability index read?
Its protein stability index is 1.65.

For TLARCAKDILGFCVMFFIVFFAYA [A13C], which protein stability index is on record?
The protein stability index was 2.25.

For TLARCAKDILGFSVMFFIVFFAYA [A13S], which protein stability index is on record?
The protein stability index was 1.75.

For TLARCAKDILGFQVMFFIVFFAYA [A13Q], which protein stability index is on record?
Its protein stability index is 2.25.

For TLARCAKDILGFYVMFFIVFFAYA [A13Y], which protein stability index is on record?
The protein stability index was 2.65.

With TLARCAKDILGFHVMFFIVFFAYA [A13H] as the variant, how does the protein stability index read?
The protein stability index was 2.15.

Which protein stability index does the source give for TLARCAKDILGFLVMFFIVFFAYA [A13L] here?
Its protein stability index is 2.63.

For TLARCAKDILGFGVMFFIVFFAYA [A13G], which protein stability index is on record?
Its protein stability index is 2.06.

For TLARCAKDILGFEVMFFIVFFAYA [A13E], which protein stability index is on record?
The protein stability index was 2.82.

With TLARCAKDILGFDVMFFIVFFAYA [A13D] as the variant, how does the protein stability index read?
Its protein stability index is 1.84.

Which protein stability index does the source give for TLARCAKDILGFNVMFFIVFFAYA [A13N] here?
Its protein stability index is 2.11.

With TLARCAKDILGFIVMFFIVFFAYA [A13I] as the variant, how does the protein stability index read?
The protein stability index was 1.52.

Which protein stability index does the source give for TLARCAKDILGFRVMFFIVFFAYA [A13R] here?
Its protein stability index is 3.17.

For TLARCAKDILGQAVMFFIVFFAYA [F12Q], which protein stability index is on record?
Its protein stability index is 2.1.

With TLARCAKDILGWAVMFFIVFFAYA [F12W] as the variant, how does the protein stability index read?
Its protein stability index is 3.56.

Which protein stability index does the source give for TLARCAKDILGDAVMFFIVFFAYA [F12D] here?
The protein stability index was 2.24.

With TLARCAKDILGEAVMFFIVFFAYA [F12E] as the variant, how does the protein stability index read?
The protein stability index was 1.44.

With TLARCAKDILGNAVMFFIVFFAYA [F12N] as the variant, how does the protein stability index read?
The protein stability index was 2.55.

With TLARCAKDILGTAVMFFIVFFAYA [F12T] as the variant, how does the protein stability index read?
Its protein stability index is 1.89.

For TLARCAKDILGSAVMFFIVFFAYA [F12S], which protein stability index is on record?
Its protein stability index is 1.89.

Which protein stability index does the source give for TLARCAKDILGVAVMFFIVFFAYA [F12V] here?
Its protein stability index is 2.42.

For TLARCAKDILGAAVMFFIVFFAYA [F12A], which protein stability index is on record?
The protein stability index was 1.42.

With TLARCAKDILGIAVMFFIVFFAYA [F12I] as the variant, how does the protein stability index read?
The protein stability index was 1.49.

With TLARCAKDILGRAVMFFIVFFAYA [F12R] as the variant, how does the protein stability index read?
Its protein stability index is 2.02.

Which protein stability index does the source give for TLARCAKDILGCAVMFFIVFFAYA [F12C] here?
The protein stability index was 1.87.

Which protein stability index does the source give for TLARCAKDILGKAVMFFIVFFAYA [F12K] here?
The protein stability index was 2.33.

For TLARCAKDILGHAVMFFIVFFAYA [F12H], which protein stability index is on record?
Its protein stability index is 1.93.

Which protein stability index does the source give for TLARCAKDILGYAVMFFIVFFAYA [F12Y] here?
Its protein stability index is 1.89.

Which protein stability index does the source give for TLARCAKDILGPAVMFFIVFFAYA [F12P] here?
The protein stability index was 2.87.

Which protein stability index does the source give for TLARCAKDILGLAVMFFIVFFAYA [F12L] here?
Its protein stability index is 3.16.

With TLARCAKDILGGAVMFFIVFFAYA [F12G] as the variant, how does the protein stability index read?
Its protein stability index is 2.56.

Which protein stability index does the source give for TLARCAKDILGFAVMPFIVFFAYA [F16P] here?
The protein stability index was 1.96.

For TLARCAKDILGFAVMWFIVFFAYA [F16W], which protein stability index is on record?
The protein stability index was 3.32.

Which protein stability index does the source give for TLARCAKDILGFAVMAFIVFFAYA [F16A] here?
The protein stability index was 2.21.

With TLARCAKDILGFAVMHFIVFFAYA [F16H] as the variant, how does the protein stability index read?
Its protein stability index is 2.28.

Which protein stability index does the source give for TLARCAKDILGFAVMTFIVFFAYA [F16T] here?
The protein stability index was 2.41.

For TLARCAKDILGFAVMRFIVFFAYA [F16R], which protein stability index is on record?
Its protein stability index is 3.37.

With TLARCAKDILGFAVMKFIVFFAYA [F16K] as the variant, how does the protein stability index read?
The protein stability index was 4.35.

For TLARCAKDILGFAVMEFIVFFAYA [F16E], which protein stability index is on record?
The protein stability index was 3.1.

Which protein stability index does the source give for TLARCAKDILGFAVMIFIVFFAYA [F16I] here?
The protein stability index was 1.57.

For TLARCAKDILGFAVMYFIVFFAYA [F16Y], which protein stability index is on record?
Its protein stability index is 1.88.

With TLARCAKDILGFAVMCFIVFFAYA [F16C] as the variant, how does the protein stability index read?
Its protein stability index is 1.79.

Which protein stability index does the source give for TLARCAKDILGFAVMQFIVFFAYA [F16Q] here?
The protein stability index was 4.27.

For TLARCAKDILGFAVMSFIVFFAYA [F16S], which protein stability index is on record?
The protein stability index was 1.82.

For TLARCAKDILGFAVMMFIVFFAYA [F16M], which protein stability index is on record?
Its protein stability index is 2.98.

For TLARCAKDILGFAVMGFIVFFAYA [F16G], which protein stability index is on record?
Its protein stability index is 2.71.

With TLARCAKDILGFAVMLFIVFFAYA [F16L] as the variant, how does the protein stability index read?
The protein stability index was 3.69.

Which protein stability index does the source give for TLARCAKDILGFAVMVFIVFFAYA [F16V] here?
The protein stability index was 2.07.

With TLARCAKDILGFAVMNFIVFFAYA [F16N] as the variant, how does the protein stability index read?
The protein stability index was 2.6.

With TLARCAKDILGFAKMFFIVFFAYA [V14K] as the variant, how does the protein stability index read?
Its protein stability index is 3.08.

For TLARCAKDILGFAPMFFIVFFAYA [V14P], which protein stability index is on record?
The protein stability index was 1.82.

Which protein stability index does the source give for TLARCAKDILGFAMMFFIVFFAYA [V14M] here?
Its protein stability index is 1.61.

For TLARCAKDILGFANMFFIVFFAYA [V14N], which protein stability index is on record?
Its protein stability index is 3.15.

Which protein stability index does the source give for TLARCAKDILGFAHMFFIVFFAYA [V14H] here?
The protein stability index was 2.85.

With TLARCAKDILGFACMFFIVFFAYA [V14C] as the variant, how does the protein stability index read?
Its protein stability index is 2.86.

For TLARCAKDILGFAQMFFIVFFAYA [V14Q], which protein stability index is on record?
Its protein stability index is 2.46.

Which protein stability index does the source give for TLARCAKDILGFAIMFFIVFFAYA [V14I] here?
The protein stability index was 1.86.

With TLARCAKDILGFAEMFFIVFFAYA [V14E] as the variant, how does the protein stability index read?
The protein stability index was 2.48.

Which protein stability index does the source give for TLARCAKDILGFALMFFIVFFAYA [V14L] here?
Its protein stability index is 3.47.

With TLARCAKDILGFAFMFFIVFFAYA [V14F] as the variant, how does the protein stability index read?
Its protein stability index is 2.3.

Which protein stability index does the source give for TLARCAKDILGFADMFFIVFFAYA [V14D] here?
Its protein stability index is 2.59.

For TLARCAKDILGFAGMFFIVFFAYA [V14G], which protein stability index is on record?
The protein stability index was 1.9.

With TLARCAKDILGFATMFFIVFFAYA [V14T] as the variant, how does the protein stability index read?
The protein stability index was 2.07.

Which protein stability index does the source give for TLARCAKDILGFARMFFIVFFAYA [V14R] here?
Its protein stability index is 2.82.

Which protein stability index does the source give for TLARCAKDILGFAYMFFIVFFAYA [V14Y] here?
Its protein stability index is 3.2.

For TLARCAKDILGFAAMFFIVFFAYA [V14A], which protein stability index is on record?
Its protein stability index is 2.06.

For TLARCAKDILGFASMFFIVFFAYA [V14S], which protein stability index is on record?
Its protein stability index is 2.61.
